In a protein production outcome set (Wang et al. 2014):

Test: label from the status in PepcDB records

Sequence | protein production
MSDSLPQRNGGQILVEALRRNAVDTVYCIPGESYLPVLDALYDTDGIRTVVTRHEGAASNMADAYGKLTGRPGICFVTRGPGATHAANGVHTAQQDSTPMILFVGQVESAFKGREAFQEVDYVQMFSGLAKWAVEIDRIERIPEIVGRAFSVATSGRPGPVVVALPEEILFGSAQVADAPEPRVLPGRPGATAMAELRELLANARRPLLVLGGSGWDSAARKRLGAFVEANGLPVATSFRRQDLFDNRDPHYAGQLGFGAAPALLERLRQADLLLVVGARLGETPSAGYSLVRSPAPAQTLIHVHPDSAELNRVYLARLPIQATPCAFAEALADLAPLPSSTWQDWREAAHADYLAYSTPAASDPAVQGVDLASVVAYLSENLPDDAVIANGAGNYAVWVHRFYRYRQARTQLAPTNGAMGYGLPAAIAASLRDPQRSVVCFAGDGCFMMYPQELATAAQFGATPVVIVVNNGMLGTIRMHQEREYPGRVSATRLDNPDFVALARAFGAHAERVECSADFPAAFRRARESGRPALLELLTDPRQITPQA | failed
MEERSQLFLEQYLSSVSREVSEKYTSFSADYFCADEYNANVCADLILRGEKRASCSLEYWYSQKGELMPQVGHLQVVTNWDGKPICIIEITSVSKCQYNQVSEDFAASEGEGDKSLAWWQEAHRNFFSRECHELGIEFREDMLLVLEHFKVVYH | not failed
MIAAAWIAVTAALYAAARALHRRFPRPWLTPLLVVPGALAAVLLAARVPYPGYMRGGRLLVDLLGPATVAFALPLHRHAGLLRRHAAELCAGILAGCAVAVGSSFLLARALGLGRPLALSLAPRSITTPFAMQVAGDLGGVPALAAVFVILTAVVGLVVGQLLLRWLPLRSAVARGALFGMGAHAAGTAQAMELGRVEGAVAGVVMIVAGLGVLVATPLLRLAL | failed
MIGLVPSPIELSYISDISVPKAASAPAYYDLRALNRLTSVKDQGTAGTCWAFASYSSLESYLKPGEDWDFSENNMKNLLSSAYQEGFDRDPNDGGNRIQAAAYLARWSGPVKESDDPYSTFSGVSPADLPIKKHVQDVIFIPDRADPLDNEAIKWAVQNYGAVYTTMHYNNTFYSPEYYSYYFNGTSEPNHAVAIVGWDDSYDRNNFSKVPPGNGAFIMKNSWGPEWGDKGYFYVSYYDSKAGNGSSVFTAENPENYEYIYQYDPFGWVSSMGYSKPLAWVSNVFTAKSDEVLKAVSFYTTDSNCNYEIYIYTDPVSGPINPAGPVLSKNGTCLTAGYHTIPLDSEVRLIAGQKFSVVIKLTNPSYRYLIPLEKPKDSWSSKARANTGESFISSSGSTWTDVNTSYANSNVCIKAFTNSVLLPIANFSSNITEGYAPLSVQFRDLSGHSTDRTWDFENDGNIDSVEANPIHLFSAPGSLEHHHHHH | failed
MVLVILDFVVEWRDRVMVRWWSLLLDQGIEWSVKVVKRLLDQGVEWFDMIRGCQSSPLLLLAIKMCTEATKSSQIIMMGVNLRSLKDGFIDKGNSRVHLMANMRKANSLDDDSKPDIHSRDRDPHNYTTS | failed
MIIKNKMVKRLISTFLMSLLLASMMLVIGAGNVYAQGSVSSTSLQVSADGSDYYIIGSDFYNHFVRPTTVDLAKNKVVYNKQILTVYNGRIDKWKMSFLNQDSSGKSWFKFLSYPEATKGDIKITYTTDGINYSDSKPSLEQLKGYMVELLKPIVYPDDANNQENDIEVSFQLSPDTDYILSNSNLNKQFIPFSGENWLQNYSPYPFFTDRNQLQFVYPDYSKGVMVKYVDEEGNEIHDPQTISGSKGDVYDASTDQYKLVLDGYTLDTSKLPQNSIGNFKEALQTVTYVFSKNPVLAADVTVRYVDKENNPISEDIILQGNIGENYYTDKKILKIIL | failed
MFGCLVAGRLVQTDAQQVASDKFVFNLPDYEHVNHVVVFLLGTVPFPEGLGGAVYLCVPGGAAGQVWQLLGFITNEKPSAIFRISGLKAGEGSSHPFGMMDAPAAPSMAQVGVSVEGLHLLAQQTPVSSSAVSTLDSFTQFTQKMLDSLFNFTSSFALSQSRMSPNPSEMFIPASSIRRWYENFQRRLMQNPNFWKT | failed
MTSTETPLNSPAAAADRRRWFALAIVMTAAFMDLVDVTIVNIAIPSIQRDAGASWGQIQWITAGYALAFAAGLITGGRLGDIHGRKRLFLIGIGGFTLASALCGFAANPEMLVASRILQGGMAAMMVPQVLSIVHATFPAHERGKVFGLFGAIVGLGAVSGPLLGALLTEWNLFGLEWRPIFLINLPVGVAGLILGRRFITESKAPRALKLDLVGVALVTLGLLMLLYPLTRGRELGWPLWGHVSMAGALVVFAALVAYERRKTARDGSPLVELSLFKVKSFAAGIAVQTVFGIALGIFFLVWTLYMQMGLGWSALRAGLTGVPFSIAVSAAAGMSVQLLVPRFGRKVLQAGALLMALGVLLYIWESDRYGMAIASWQMALPLVVMGAGMGFIVAPLTDAVLSEVPREHSGSASGLINTVQQMGNALGLGLVSVVFFGEIGDRLTRAQVGPAFAHAFQHALGWVAVVLAVIFLLMFALPKRPAQHVEGAGAADTLGEKEPVLVP | failed
MAWNKQVALVFLPSDSGVDGARSLYGDTEPPGLRRWLDSGVRNLIKRTQFAIPPLALMILASIEVPGVEQTLCDLRFEEFPFDRQWDLVGISVQTGMASKAFELADRLRSRGVKVVLGGPHVTMFPDSCRAHADCLVHGEADDLWRDVLADLVTDSLKAEYRPDAPPDLQLHRPVSRASLKKNRYFTTNLVQTGRGCPYQCDFCNVHVLNGRVLRQRKIDHIVDEVRRFSEEDKRIFFFVDDSINGDPLFARELFKHLIPLNITWFGQATTALGQQPELLDTFARSGCRALLVGIESIEPSSRIAHKKTQNRTDELAGNIRAIRKSGISLYGSFIYGLDGDTLQTPQAILDFIADTRLDVPGINTLRPIPGTKVFDRLREEGRLLFDPEDITSFRYTFGQEMLYRPKNIPLPEFIESYSELTRKVFNIGNAIRRGLEAPGINAAVLFFNLFYTHLYRLSRNDLRKQLETLGSA | failed
MTRRRKILTGVLALVVLAAGGLAAARALGPGGTRVTAYFDRAIGVYAGSDLRILGVRVGEVESVDPEGTRVRVGLRLDDGIKVPEDARAVVVAPSVVADRYVQLTPAYRTGPALADGAVLPASRNHVPVEIDQIYDSITELGDALGPDGANADGALSELLRTGADNLDGNGEAIGDGVEQFGKAAKTLDGSSGDLFETLSSLQTFTTMLKNKDTDVRTAQERLDEVVSFFADNKDDLTGALEELGKALGQVKTFIEDNRGELKKNVDRLVPITRTLVEQRASLAEALDVAPLAADNVVNAYNPDTRTLDGRANLNEISSGGPLLPLPVAGTEKGEGRLEHHHHHH | not failed
MERVAVVGVPMDLGANRRGVDMGPSALRYARLLEQLEDLGYTVEDLGDVPVSLARASRRRGRGLAYLEEIRAAALVLKERLAALPEGVFPIVLGGDHSLSMGSVAGAARGRRVGVVWVDAHADFNTPETSPSGNVHGMPLAVLSGLGHPRLTEVFRAVDPKDVVLVGVRSLDPGEKRLLKEAGVRVYTMHEVDRLGVARIAEEVLKHLQGLPLHVSLDADVLDPTLAPGVGTPVPGGLTYREAHLLMEILAESGRVQSLDLVEVNPILDERNRTAEMLVGLALSLLGKRIF | not failed
MSEDRSSNGQKSWLGKLTQAFVHEPKNRQELLELLREAHQNKLLDSEALAIVEGAIQVADLQVRDIMVPRSQMISIKATQTPREFLPAVIDAAHSRYPVIGESHDDVLGVLLAKDLLPLILKADGDSDDVKKLLRPATFVPESKRLNVLLREFRANHNHMAIVIDEYGGVAGLVTIEDVLEQIVGDIEDEHDVEEDSYIKPLPSGDFLVKALTPVENFNEFFDSAFSDDEFDTVGGLVMNAFGHLPKRNEITEIGAYRFRILSADSRRIHLLRVTPISRP | failed
MSSVPRFWRNLGSRYNLEGTRCKECGEYFYPPRNVCVNCRRMGELEPFKFKGTGEIVSYTLIHTGAEGFEGQAPYTLAIIKLDEGPRLTSQVVGNTDNIQIGTRVRSVFRKLGEDGERGMIYYGTKFVPVDALEHHHHHH | not failed
MDKTIYEQMLLKNYKGAEGAEEAWDARANHFYKSQQRGRSELVEKVTAILQERGLLAGADLLDIGGGSGRYAVPFAAHAEHVTITDISANMLELARRNAQEAGVTNLTYAKLEWTGADLAAWQWRKRFDLVFASMCPAIRSPEGLYKMLEAAKGFCLINQYIEATDSLSAYLTQVLDPPRSYEPYNDRDMVQAVFNLLWLEGYEPEICYLRQREVTSFTVEGAVEQYGGRYHQAAQLKRMDLAELISRHAGQVTFSVDSKATLAMILWKV | failed
MIAISSLLGLVVRSFYFLLPDYRAADTWFHASKVKMIISTGTVYFSHVPGYFSAQIIKYPPGYHALIALLSGFKGENIIYGMNSLRIFEILYLPALAYLVGREIRREIGIFAALLTNFSALYYYFVQYALLPAFTNYMIFLLSVYFLEVAMRDRGIKISIMLGITSGIMAVVHPYQYILFQATAFFTTILSKNRKVFLTQLILSASVFLVFTPFSTEYAVKGILMNPRFSNKDNPNFLISILRYSFVDNGQILFGLSLILALILSLMRGGSIEKGLSLSFLLIIFMMLDKTYLNIRIPYLSAVWNSERAFMLTTPLIPILEGIGLNYIFKVKKELAAIFLVVGMMISYPYLRIEHLASESSYLLDPEVVDFIKEVSRIAGNETVMTACEFDSGRWIPILTETPIVCYSKNISEARYLYVDTRGAGEIEVYPINIVNFLDRRVVLFRDGLWLLDLNKHGKPTGDVLSYYHTNGTISYIKDTKWFVYGWVNKNYATMKLRLKGFPYAIMIVNTSSILFSTSESFDRIEIRISGKKGRALEIYLDGEFIKRYEFKTEYGDERIVLKVRVDPGMHYLILYSPNTTYKIPIGVKEIMLKREGP | failed
MSEVEQFATIALISLTAFISPLIADKLRVPVVVLEIVLGMIFGVSFLNVIYASEWLSFLSLFGLIFLMFLAGLEIDADVVLKSGHLKRVVAFFALSLALSVALTALMGLNLFYAIILTNVAVGVVVSVLREIGLEKEDFGQLNIVTALVSDFSTMFLLSIYFITGYLQVAFAFLIILVFLAAYRFGKLVIWHFPDFISRWFSDEPSEIGVRGSLAIMILFVGLSSLLGVEAILGAFLAGVLLSITFRGGKKLYDKLYGMGFGFFIPIFFIKTGSELNITQAGEGIGFILLLLAVSVAVKGIPSLIFASNFGLRRAISMGMLQSTKLSLTIAGVAIGVSSGVITEFESTALVTFTIISCLLSPTLFRFLYPRYLPKTR | failed
MKTVKDAEIFCQYIAHEYLGKRNYKLLEDIIDKRITIIGTGAHEVSRNIQELMTALNKEAELWDGTFIIEDEWYQGTELADNLFVVIGQIEGRQNSNDQLVYSFSSRVTFIIEYHDMQWKIIHVHQSVPDYSQGDDEFFPQRIVEESNAQLKKEIAEKTKELEMSNQQVIYNLRHDYLTGILNRPSLEKEVTEAMSNHQYGVILVLDIDYFKEVNDNNGHPYGDEVLIKLANTMQESFKSGICGRIGGDEFIIYLALDDANYDAIEKTIKEFKQNWQKNITTIDRSSTITLSIGGAYYPKHGKNYQELWSNADKALYLSKNNGRNRISIYQL | failed
MAYDDIVSSMVLELRRGTLVMLVLSQLREPAYGYALVKSLADHGIPIEANTLYPLMRRLESQGLLASEWDNGGSKPRKYYRTTDEGLRVLREVEAQWHVLCDGVGKLLETNGEDREHAER | not failed
MMSGLVYRKRRRQNMTALERSWFEEAQQSMHGWDFSHLAGRWQTADLPWDYAALVREHLSADDRWLDIDTGGGELMGRFNPQPALTAVTEGWQPNIELLKQTVVKKGITLYPDAAEQLTAVPNSTFDIVTNSHGAMPVKRIAEVLKPGGRFVTQQVGATNNYALSRFFDEHYETAYPDNQLLTVMAQMQAAGFEILRAEQAYAALSFTDVGAIVYYATVIPWEFPHFDVARMLPKLHQLQSLLAINGRVTTFEDRFMIIARKLARRD | failed
EAGTGRPVLILHGGGGPATVAPLAGHLARTAHTLVPTHPGWNGTPRPDRFAGVDDIALAYLRHLQDRGLRDVLVVGSSLGGWIGAELAARDDLGIITGLVLIDAVGIQVDGEPVRDFFALDARGVAEYSYHDPDRFYVDPADIPAGQLAARQANMATMRALAGDPYMHDPTLRGRLARVPVPTLVLWGESDRIVTPAYGRAYTDAFPDARFEVIPKAGHLPQLEQPEATFAAIDAYLAR | failed
